T1: recombinant human sclerostin (human, UniProt Q9BQB4 24-213)
T1 construct: biotinylated in the ELISAs; also called hu sclerostin; hu scl
T1 sequence: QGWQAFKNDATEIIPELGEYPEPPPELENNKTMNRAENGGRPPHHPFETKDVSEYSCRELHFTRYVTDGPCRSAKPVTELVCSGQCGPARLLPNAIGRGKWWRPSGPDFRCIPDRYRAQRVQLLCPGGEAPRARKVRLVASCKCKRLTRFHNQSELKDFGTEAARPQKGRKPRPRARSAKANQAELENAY

T2: recombinant mouse sclerostin (mouse, UniProt Q99P68 24-211)
T2 construct: also called ms sclerostin; murine sclerostin
T2 sequence (looked up): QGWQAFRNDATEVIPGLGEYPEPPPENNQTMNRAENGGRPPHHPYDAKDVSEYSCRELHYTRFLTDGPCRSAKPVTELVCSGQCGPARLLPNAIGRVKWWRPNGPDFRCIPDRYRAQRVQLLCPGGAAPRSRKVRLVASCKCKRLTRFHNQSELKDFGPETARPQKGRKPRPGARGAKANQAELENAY

T3: recombinant rat sclerostin (rat, UniProt Q99P67 24-213, limits assumed)
T3 sequence (looked up): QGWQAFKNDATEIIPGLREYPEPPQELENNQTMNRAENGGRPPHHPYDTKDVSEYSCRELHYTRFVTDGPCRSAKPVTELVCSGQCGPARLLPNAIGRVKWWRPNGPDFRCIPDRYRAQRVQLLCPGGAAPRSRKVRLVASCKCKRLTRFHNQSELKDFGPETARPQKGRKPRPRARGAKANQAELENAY


What was measured:
Assay in all cases: SPR
[1] = biological target: T1, recombinant human sclerostin
Description: (§1) The binding of antibodies or anti-sclerostin-TNF DVD to purified recombinant human, cynomolgus monkey (cyno), rat and mouse sclerostin and TNFα was determined by surface plasmon resonance-based measurements with a Biacore T100 or T200 instruments (GE Healthcare Life Sciences, Piscataway, N.J., USA) using running HBS-EP+ (10 mM HEPES [pH 7.4], 150 mM NaCl, 3 mM EDTA, and 0.005% surfactant P20) containing additional 150 mM NaCl, and/or 10 mg/ml carboxymethyl dextran, 0.1 mg/ml BSA at 25° C. All chemicals were obtained from GE Healthcare Life Sciences, Piscataway, N.J., USA or otherwise from a different source as described in the text. Approximately 10,000 RU (or 3000 RU when CM3 chip was used) of goat anti-mouse or anti-human IgG (Fcγ) fragment specific polyclonal antibody (Pierce Biotechnology Inc, Rockford, Ill.) diluted in 10 mM sodium acetate (pH 4.5) was directly immobilized across a CM5 (or CM3) research grade biosensor chip using a standard amine coupling kit according to manufacturer's instructions and procedures at 15 μg/ml. Unreacted moieties on the biosensor surface were blocked with ethanolamine. Modified carboxymethyl dextran surface in flowcells 2, 3 and 4 were used as a reaction surface. Modified carboxymethyl dextran in flow cell 1 was used as the reference surface. Biaevaluation T100 software version 2.0.2, GE Healthcare Life Sciences was used to simultaneously fit association and dissociation phases of all injections (using 1:1 fit analysis with local Rmax). Purified antibodies were diluted in running buffer for capture across goat anti-mouse or anti-human IgG specific reaction surfaces. Antibodies to be captured as a ligand (1 μg/ml) were injected over reaction matrices at a flow rate of 10 μl/minute. The association and dissociation rate constants, kon (unit M-1 s-1) and koff (unit s-1) were determined under a continuous flow rate of 50 μl/minute. […] At the end of each cycle the surfaces were regenerated with 10 s injection of 50 mM NaOH or/and by 10 s injection of 10 mM Glycine pH1.5 at a flow rate of 100 μl/min.

[2] = biological target: T4, recombinant cynomolgus monkey sclerostin (cynomolgus monkey)
T4 construct: also called cyno sclerostin; Cyno sclerostin
Description: as §1

[3] = biological target: T2, recombinant mouse sclerostin
Description: as §1

[4] = biological target: T3, recombinant rat sclerostin
Description: as §1

Binder	Kd [1] [pM]	koff [1] [s⁻¹]	kon [1] [M⁻¹ s⁻¹]	Kd [2] [pM]	koff [2] [s⁻¹]	kon [2] [M⁻¹ s⁻¹]	Kd [3] [pM]	koff [3] [s⁻¹]	kon [3] [M⁻¹ s⁻¹]	Kd [4] [pM]	koff [4] [s⁻¹]	kon [4] [M⁻¹ s⁻¹]
AE10-6-AM3 (antibody, V domains shown, converted into IgG) VH: EVQLVQSGAEVKKPGASVKVSCKVSGYTLTELSMHWVRQAPGKGLEWMGGFDPEDGETIYAQKFQGRVTMTEDTSTDTAYMELSSLRSEDTAVYYCATDSAGYWYKFFQHWGQGTLVTVSS VL: QAVVTQEPSLTVSPGGTVTLTCGSSTGAVTIDHYPYWFQQKPGQAPRTLISDTDDKHSWTPARFSGSLLGGKAALTLSGAQPEDEAEYYCLLDYGGTFVFGGGTKLTVL	0.54	3.8e-06	7e+06	0.24	1.6e-06	6.9e+06	5.5	5.5e-05	1e+07	10	1.9e-05	1.9e+06
AE10-6-AM2 (antibody, V domains shown, converted into IgG; also called rHC + LC S4 clone 102) VH: EVQLVQSGAEVKKPGASVKVSCKVSGYTLTELSMHWVRQAPGKGLEWMGGFDPEAGETIYAQKFQGRVTMTEDTSTDTAYMELSSLRSEDTAVYYCATDGELYWYKFFQHWGQGTLVTVSS VL: QAVVTQEPSLTVSPGGTVTLTCGSSTGAVTIWHYPYWFQQKPGQAPRTLISDTNDKHSWTPARFSGSLLGGKAALTLSGAQPEDEAEYYCLLDYGGSFVFGGGTKLTVL	8.1	2.7e-05	3.4e+06	7.1	2.6e-05	3.6e+06	94	0.002	2.1e+07	120	0.00088	7.6e+06
AE10-6-AM5 (antibody, V domains shown, converted into IgG) VH: EVQLVQSGAEVKKPGASVKVSCKVSGYTLSELSMHWVRQAPGKGLEWMGGFDPEGGETIYAQKFQGRVTMTEDTSTDTAYMELSSLRSEDTAVYYCATDAGGYWYKFFQHWGQGTLVTVSS VL: QAVVTQEPSLTVSPGGTVTLTCGSSTGTVTIDHYPYWFQQKPGQAPRTLISDTDDKHSWTPARFSGSLLGGKAALTLSGAQPEDEAEYYCLLFYGGTVVFGGGTKLTVL	3	1.3e-05	4.3e+06	1.5	7.6e-06	5.2e+06	16	0.00011	7e+06	56	7.5e-05	1.3e+06
AE10-6-AM7 (antibody, V domains shown, converted into IgG; also called rHC + LC S4 clone 131) VH: EVQLVQSGAEVKKPGASVKVSCKVSGYTLTELSMHWVRQAPGKGLEWMGGFDPEDGETIYAQKFQGRVTMTEDTSTDTAYMELSSLRSEDTAVYYCATDTVGYWEKFFQHWGQGTLVTVSS VL: QAVVTQEPSLTVSPGGTVTLTCGSSTGTVTIDHYPYWFQQKPGQAPRTLISDTDDKHSWTPARFSGSLLGGKAALTLSGAQPEDEAEYYCLLDYGGRFVFGGGTKLTVL	0.3	2.1e-06	7.1e+06	< 0.14	< 1e-07	7e+06	9.3	0.00012	1.3e+07	26	4.6e-05	1.8e+06
AE10-6-AM6 (antibody, V domains shown, converted into IgG; also called rHC + LC S4 clone 119) VH: EVQLVQSGAEVKKPGASVKVSCKVSGYTLSELSMHWVRQAPGKGLEWMGGFDPEGGETIYAQKFQGRVTMTEDTSTDTAYMELSSLRSEDTAVYYCATDTEGYWEKFFQHWGQGTLVTVSS VL: QAVVTQEPSLTVSPGGTVTLTCGSSTGAVTIDHYPYWFQQKPGQAPRTLISDTDDKHSWTPARFSGSLLGGKAALTLSGAQPEDEAEYYCLLDYGGTFVFGGGTKLTVL	1.3	1.2e-05	9.1e+06	0.88	7e-06	7.9e+06	27	0.00087	3.2e+07	98	0.00018	1.9e+06
MAK195-21-SS-AE10-6 AM7 (bispecific antibody, human IgG1, lambda, L234A L235A, DVD-Ig: outer MAK195-21, inner AE10-6 AM7) heavy: not shown light: DIQMTQSPSSLSASVGDRVTITCRASQLVSSAVAWYQQKPGKAPKLLIYWASARHTGVPSRFSGSGSGTDFTLTISSLQPEDFATYYCQQHYKTPFTFGQGTKLEIKRTVAAPQAVVTQEPSLTVSPGGTVTLTCGSSTGTVTIDHYPYWFQQKPGQAPRTLISDTDDKHSWTPARFSGSLLGGKAALTLSGAQPEDEAEYYCLLDYGGRFVFGGGTKLTVLGQPKAAPSVTLFPPSSEELQANKATLVCLISDFYPGAVTVAWKADSSPVKAGVETTTPSKQSNNKYAASSYLSLTPEQWKSHRSYSCQVTHEGSTVEKTVAPTECS	< 1.5	< 1e-06	680000									
DVD2658 (bispecific antibody, human IgG1, kappa, L234A L235A, DVD-Ig: outer MSL10-AM1.2, inner AB436) heavy: not shown light: QSVLTQPPSASGTPGQRVTISCSGSSSNIGRNTVNWYQQLPGTAPKLLIYSNNQRPSGVPDRFSGSKSGTSASLAISGLQSEDEADYYCAAWDDNLESYVFGGGTKLTVLGQPKAAPDIQMTQSPSSLSASVGDRVTITCRASQLVSSAVAWYQQKPGKAPKLLIYWASARHTGVPSRFSGSGSGTDFTLTISSLQPEDFATYYCQQHYKTPFTFGQGTKLEIKRTVAAPSVFIFPPSDEQLKSGTASVVCLLNNFYPREAKVQWKVDNALQSGNSQESVTEQDSKDSTYSLSSTLTLSKADYEKHKVYACEVTHQGLSSPVTKSFNRGEC	< 3.7	< 1e-06	270000	61	3e-05	500000						
MAK195-21-GS-AE10-6 AM3 (bispecific antibody, human IgG1, lambda, L234A L235A, DVD-Ig: outer MAK195-21, inner AE10-6 AM3; heavy chain row is printed MAK195-1-GS-AE10-6 AM3; also called MAK195-1-GS-AE10-6 AM3) heavy: not shown light: DIQMTQSPSSLSASVGDRVTITCRASQLVSSAVAWYQQKPGKAPKLLIYWASARHTGVPSRFSGSGSGTDFTLTISSLQPEDFATYYCQQHYKTPFTFGQGTKLEIKGGSGGGGSGQAVVTQEPSLTVSPGGTVTLTCGSSTGAVTIDHYPYWFQQKPGQAPRTLISDTDDKHSWTPARFSGSLLGGKAALTLSGAQPEDEAEYYCLLDYGGTFVFGGGTKLTVLGQPKAAPSVTLFPPSSEELQANKATLVCLISDFYPGAVTVAWKADSSPVKAGVETTTPSKQSNNKYAASSYLSLTPEQWKSHRSYSCQVTHEGSTVEKTVAPTECS	8.2	1.7e-05	2.1e+06									
MAK195-21-GS-AE10-6 AM8 (bispecific antibody, human IgG1, lambda, L234A L235A, DVD-Ig: outer MAK195-21, inner AE10-6 AM8) heavy: not shown light: DIQMTQSPSSLSASVGDRVTITCRASQLVSSAVAWYQQKPGKAPKLLIYWASARHTGVPSRFSGSGSGTDFTLTISSLQPEDFATYYCQQHYKTPFTFGQGTKLEIKGGSGGGGSGQAVVTQEPSLTVSPGGTVTLTCGSSTGAVTIDHYPYWFQQKPGQAPRTLISDTDDKHSWTPARFSGSLLGGKAALTLSGAQPEDEAEYYCLLDYGGSFVFGGGTKLTVLGQPKAAPSVTLFPPSSEELQANKATLVCLISDFYPGAVTVAWKADSSPVKAGVETTTPSKQSNNKYAASSYLSLTPEQWKSHRSYSCQVTHEGSTVEKTVAPTECS	3.6	7.9e-06	2.2e+06									
MAK195-21-GS-AE10-6 AM7 (bispecific antibody, human IgG1, lambda, L234A L235A, DVD-Ig: outer MAK195-21, inner AE10-6 AM7) heavy: not shown light: DIQMTQSPSSLSASVGDRVTITCRASQLVSSAVAWYQQKPGKAPKLLIYWASARHTGVPSRFSGSGSGTDFTLTISSLQPEDFATYYCQQHYKTPFTFGQGTKLEIKGGSGGGGSGQAVVTQEPSLTVSPGGTVTLTCGSSTGTVTIDHYPYWFQQKPGQAPRTLISDTDDKHSWTPARFSGSLLGGKAALTLSGAQPEDEAEYYCLLDYGGRFVFGGGTKLTVLGQPKAAPSVTLFPPSSEELQANKATLVCLISDFYPGAVTVAWKADSSPVKAGVETTTPSKQSNNKYAASSYLSLTPEQWKSHRSYSCQVTHEGSTVEKTVAPTECS	10	2e-05	2e+06									
DVD2657 (bispecific antibody, human IgG1, kappa, L234A L235A, DVD-Ig: outer MSL10-AM1.2, inner AB436) heavy: not shown light: QSVLTQPPSASGTPGQRVTISCSGSSSNIGRNTVNWYQQLPGTAPKLLIYSNNQRPSGVPDRFSGSKSGTSASLAISGLQSEDEADYYCAAWDDNLESYVFGGGTKLTVLGGGSGGGGSGDIQMTQSPSSLSASVGDRVTITCRASQLVSSAVAWYQQKPGKAPKLLIYWASARHTGVPSRFSGSGSGTDFTLTISSLQPEDFATYYCQQHYKTPFTFGQGTKLEIKRTVAAPSVFIFPPSDEQLKSGTASVVCLLNNFYPREAKVQWKVDNALQSGNSQESVTEQDSKDSTYSLSSTLTLSKADYEKHKVYACEVTHQGLSSPVTKSFNRGEC	17	4.9e-06	280000	130	5e-05	390000						
